The values that follow come from US20020104105A1 (MYRIAD GENETICS, published 2002).

This assay addresses T1, ERK3, amino acids 1-316, bait fused to the Gal4 DNA binding domain (Saccharomyces cerevisiae, UniProt P04386 1-147; Q16659 1-316).
T1 construct: range 1-147;range 1-316; Bait cDNA made by PCR from brain cDNA; also called ERK3 protein kinase
Description: yeast two-hybrid. From the text:
The new construct was selected directly in the yeast J693 for its ability to drive tryptophane synthesis (genotype of this strain: Mat α, ade2, his3, leu2, trp1, URA3::GAL1-lacZ LYS2::GAL1-HIS3 gal4del gal80del cyhR2). In these yeast cells, the bait is produced as a C-terminal fusion protein with the DNA binding domain of the transcription factor Gal4 (amino acids 1 to 147). A total human brain (person) cDNA library cloned into the yeast expression vector pACT2 was purchased from Clontech (human brain […] cDNA, cat. # HL4004AH), transformed into the yeast strain J692 (genotype of this strain: Mat a, ade2, his3, leu2, trp1, URA3::GAL1-lacZ LYS2::GAL1-HIS3 gal4del ga80del cyhR2), and selected for the ability to drive leucine synthesis. In these yeast cells, each cDNA is expressed as a fusion protein with the transcription activation domain of the transcription factor Gal4 (amino acids 768 to 881) and a 9 amino acid hemagglutinin epitope tag. J693 cells (Mat α type) expressing the bait were then mated with J692 cells ([…]) expressing proteins from the brain library. The resulting diploid yeast cells expressing proteins interacting with the bait protein were selected for the ability to synthesize tryptophan, leucine, histidine, and β-galactosidase. […]

B1: CDK9, amino acids 160-372, prey clone fused to the Gal4 activation domain (other, Saccharomyces cerevisiae;human, UniProt P04386 768-881, looked up, not shown: small tags and cut ends)
chain: ANFNQSGNIADSSLSFTFTNSSNGPNLITTQTNSQALSQPIASSNVHDNFMNNEITASKIDDGNNSKPLSPGWTDQTAYNAFGITTGMFNTTTMDDVYNYLFDDEDTPPNPKKEDGVLKLADFGLARAFSLAKNSQPNRYTNRVVTLWYRPPELLLGERDYGPPIDLWGAGCIMAEMWTRSPIMQGNTEQHQLALISQLCGSITPEVWPNVDNYELYEKLELVKGQKRKVKDRLKAYVRDPYALDLIDKLLVLDPAQRIDSDDALNHDFFWSDPMPSDLKGMLSTHLTSMFEYLAPPRRKGSQITQQSTNQSRNPATTNQTEFERVF
notes: Clone from the human brain cDNA library; also called PITARLE
B1: the binding result is “binds”.
